Experimental data as given in patent EP4800035A1 (National Cancer Center, dated 2025).

Key:
[1] = target: T1, human interleukin-7 receptor (IL-7R) (human, UniProt P16871 21-459); assay: flow cytometry on NALM6 and REH cells (FIG. 5, human chimeric clone)
T1 construct: whole, on cells; Endogenous receptor on NALM6 and REH cells in flow cytometry; also called IL-7Ralpha; IL-7 Ralpha
T1 sequence (looked up): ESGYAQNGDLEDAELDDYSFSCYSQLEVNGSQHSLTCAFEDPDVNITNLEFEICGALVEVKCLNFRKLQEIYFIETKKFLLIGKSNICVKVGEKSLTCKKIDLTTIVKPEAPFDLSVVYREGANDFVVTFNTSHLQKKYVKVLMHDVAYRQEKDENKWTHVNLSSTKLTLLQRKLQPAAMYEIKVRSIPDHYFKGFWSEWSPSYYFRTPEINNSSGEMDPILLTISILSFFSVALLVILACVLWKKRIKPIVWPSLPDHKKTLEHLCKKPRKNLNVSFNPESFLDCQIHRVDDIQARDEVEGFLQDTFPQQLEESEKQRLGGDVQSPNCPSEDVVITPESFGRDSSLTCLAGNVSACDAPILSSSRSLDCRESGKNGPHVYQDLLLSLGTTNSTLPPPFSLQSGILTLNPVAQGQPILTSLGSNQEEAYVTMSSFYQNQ

[2] = target: T1, human interleukin-7 receptor (IL-7R); assay: flow cytometry on NALM6 and REH cells (FIG. 2)

B1: clone 577 chimeric antibody in the IgG1 format (antibody)
heavy: not shown
light: ETTVTQSPASLSMAMGEKVTIRCMTSTDINDDMNWYQQKPGEPPKLLISEGNTLRPGVPSRFSSSGYSTDFFFTIEYMLSEDVADYFCLQTDNLPLTFGAGTKLELRRTVAAPSVFIFPPSDEQLKSGTASVVCLLNNFYPREAKVQWKVDNALQSGNSQESVTEQDSKDSTYSLSSTLTLSKADYEKHKVYACEVTHQGLSSPVTKSFNRGEC
binding result [1]: binds

B2: clone 577 chimeric antibody in the IgG4 format (antibody)
heavy: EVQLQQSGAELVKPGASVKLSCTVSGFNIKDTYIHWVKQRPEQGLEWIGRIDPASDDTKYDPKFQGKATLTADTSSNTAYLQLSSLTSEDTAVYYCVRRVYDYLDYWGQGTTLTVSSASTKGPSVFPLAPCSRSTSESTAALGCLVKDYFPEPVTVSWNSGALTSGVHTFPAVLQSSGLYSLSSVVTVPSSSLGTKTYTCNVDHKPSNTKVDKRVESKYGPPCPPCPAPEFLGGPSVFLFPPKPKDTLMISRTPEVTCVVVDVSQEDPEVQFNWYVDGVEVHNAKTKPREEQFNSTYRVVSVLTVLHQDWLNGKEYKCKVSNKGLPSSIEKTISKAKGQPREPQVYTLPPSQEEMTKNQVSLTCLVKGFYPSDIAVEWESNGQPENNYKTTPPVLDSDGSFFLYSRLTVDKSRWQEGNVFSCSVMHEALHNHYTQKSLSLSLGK
light: B1 light
binding result [2]: binds

B3: clone 2D5 chimeric antibody in the IgG1 format (antibody)
heavy: not shown
light: DIVMTQSHKFMSTSVGDRVSITCKASQDVGIVVAWYQQKPGQSPKLLIYWASTRHTGVPDRFTGSGSGTDFTLTISNVQSEDLADYFCQQYSSYPLTFGAGTKLELRRTVAAPSVFIFPPSDEQLKSGTASVVCLLNNFYPREAKVQWKVDNALQSGNSQESVTEQDSKDSTYSLSSTLTLSKADYEKHKVYACEVTHQGLSSPVTKSFNRGEC
notes: also called anti-human IL-7R antibody clone 2D5 (IgG1 format)
binding result [2]: binds

B4: clone 2D5 chimeric antibody in the IgG4 format (antibody)
heavy: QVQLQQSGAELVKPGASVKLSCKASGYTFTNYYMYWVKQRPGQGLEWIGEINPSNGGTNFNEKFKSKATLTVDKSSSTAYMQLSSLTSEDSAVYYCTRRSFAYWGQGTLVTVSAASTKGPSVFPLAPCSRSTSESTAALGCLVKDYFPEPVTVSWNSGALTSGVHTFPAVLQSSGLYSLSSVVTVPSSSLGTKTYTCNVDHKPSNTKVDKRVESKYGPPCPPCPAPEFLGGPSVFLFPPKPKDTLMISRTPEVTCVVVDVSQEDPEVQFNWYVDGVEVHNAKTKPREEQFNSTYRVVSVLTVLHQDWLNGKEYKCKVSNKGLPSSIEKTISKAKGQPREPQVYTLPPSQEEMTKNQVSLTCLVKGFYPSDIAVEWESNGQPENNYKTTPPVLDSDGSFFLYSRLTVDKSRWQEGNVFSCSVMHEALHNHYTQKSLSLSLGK
light: B3 light
notes: also called anti-human IL-7R antibody clone 2D5 (IgG4 format)
binding result [2]: binds

B5: clone 24 chimeric antibody in the IgG1 format (antibody)
heavy: not shown
light: QIVLTQSPAIMSSFPGEKVTMTCSASSSVNYIHWYQQKSGTSPKRLIYDTSKLASGVPPRFSGSGSGTSYSLTISSMEAEDAATYYCQQWSRNPLTFGAGTKLELRRTVAAPSVFIFPPSDEQLKSGTASVVCLLNNFYPREAKVQWKVDNALQSGNSQESVTEQDSKDSTYSLSSTLTLSKADYEKHKVYACEVTHQGLSSPVTKSFNRGEC
notes: also called anti-human IL-7R antibody clone 24 (IgG1 format)
binding result [2]: binds

B6: clone 24 chimeric antibody in the IgG4 format (antibody)
heavy: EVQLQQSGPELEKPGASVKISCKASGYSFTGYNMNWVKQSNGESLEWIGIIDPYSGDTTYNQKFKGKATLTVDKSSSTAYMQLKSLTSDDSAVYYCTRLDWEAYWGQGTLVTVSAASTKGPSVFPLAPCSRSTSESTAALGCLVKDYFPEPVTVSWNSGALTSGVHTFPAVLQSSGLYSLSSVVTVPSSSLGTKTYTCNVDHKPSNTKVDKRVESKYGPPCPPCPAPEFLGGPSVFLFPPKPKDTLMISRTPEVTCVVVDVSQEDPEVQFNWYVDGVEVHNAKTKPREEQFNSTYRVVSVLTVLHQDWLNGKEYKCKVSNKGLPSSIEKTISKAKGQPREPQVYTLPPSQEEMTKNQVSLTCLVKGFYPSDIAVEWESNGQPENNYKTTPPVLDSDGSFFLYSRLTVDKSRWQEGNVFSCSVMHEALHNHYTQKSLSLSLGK
light: B5 light
notes: also called anti-human IL-7R antibody clone 24 (IgG4 format)
binding result [2]: binds
